Molecular target: bovine trypsin (bovine, UniProt P00760 24-246)
Assay: cell-based or functional assay

Chain of bovine trypsin (P00760 24-246): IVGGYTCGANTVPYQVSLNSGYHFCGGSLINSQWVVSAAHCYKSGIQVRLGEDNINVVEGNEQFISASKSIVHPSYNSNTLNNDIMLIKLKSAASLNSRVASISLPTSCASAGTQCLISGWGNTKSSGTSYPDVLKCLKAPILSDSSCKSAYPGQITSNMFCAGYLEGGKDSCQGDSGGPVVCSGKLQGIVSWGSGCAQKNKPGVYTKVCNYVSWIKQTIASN

B1: Native chicken Ovomucoid (other)
chain: AEVDCSRFPNATDKEGKDVLVCNKDLRPICGTDGVTYTNDCLLCAYSIEFGTNISKEHDGECKETVPMNCSSYANTTSEDGKVMVLCNRAFNPVCGTDGVTYDNECLLCAHKVEQGASVDKRHDGGCRKELAAVSVDCSEYPKPDCTAEDRPLCGSDNKTYGNKCNFCNAVVESNGTLTLSHFGKC
modifications: complex branched N-linked glycosylation (includes mannose)
Trypsin inhibition activity: 13700 TIU/g
